Data as given in the RNAGym collection of RNA variant scans (doi:10.7554/elife.80360).

B1: HDV Ribozyme (parent)
chain: GGCCGGCAUGGUCCCAGCCUCCUCGCUGGCGCCGGCUGGGCAACAUUCCGAGGGGACCGUCCCCUCGGUAAUGGCGAAUGGGACCCA

Variants of: B1
Assay: self-cleavage, relative activity (ratio to wild type); higher = more cleavage; co-transcriptional

Variant | self-cleavage
UGCCGGCAUGGUCCCAGCCUCCUCGCUGGCGCCAGCUGGGCAACAUUCCGAGGGGACCGUCCCCUCGGUAAUGGCGAAUGGGACCCA [G1U G34A] | 0.298
UGCCGGCAUGGUCCCAGCCUCCUCGCUGGCGCCUGCUGGGCAACAUUCCGAGGGGACCGUCCCCUCGGUAAUGGCGAAUGGGACCCA [G1U G34U] | 0.215
UGCCGGCAUGGUCCCAGCUUCCUCGCUGGCGCCGGCUGGGCAACAUUCCGAGGGGACCGUCCCCUCGGUAAUGGCGAAUGGGACCCA [G1U C19U] | 0.28
UGCCGGCAUGGUCCCAACCUCCUCGCUGGCGCCGGCUGGGCAACAUUCCGAGGGGACCGUCCCCUCGGUAAUGGCGAAUGGGACCCA [G1U G17A] | 0.212
UGCCGGCAUGGUCCCAGCCUCCUCGCUGGCGCCGGCUGGGCAAUAUUCCGAGGGGACCGUCCCCUCGGUAAUGGCGAAUGGGACCCA [G1U C44U] | 0.252
UGCCGGCAUGGUCCCAGCCUCCUCGCUGGCGCCGGCUGAGCAACAUUCCGAGGGGACCGUCCCCUCGGUAAUGGCGAAUGGGACCCA [G1U G39A] | 0.24
UGGCGGCAUGGUCCCAGCCUCCUCGCUGGCGCCGGCUGGGCAACAUUCCGAGGGGACCGUCCCCUCGGUAAUGGCGAAUGGGACCCA [G1U C3G] | 1.6
UGCCGGCAUGGUCCAAGCCUCCUCGCUGGCGCCGGCUGGGCAACAUUCCGAGGGGACCGUCCCCUCGGUAAUGGCGAAUGGGACCCA [G1U C15A] | 0.302
UGCCGGCAUGGUCCGAGCCUCCUCGCUGGCGCCGGCUGGGCAACAUUCCGAGGGGACCGUCCCCUCGGUAAUGGCGAAUGGGACCCA [G1U C15G] | 0.0852
UGCCGGCAUGGUCCUAGCCUCCUCGCUGGCGCCGGCUGGGCAACAUUCCGAGGGGACCGUCCCCUCGGUAAUGGCGAAUGGGACCCA [G1U C15U] | 0.269
UGCCGGCAUGGUCCCAGCCUCCUCGCUGGCGCAGGCUGGGCAACAUUCCGAGGGGACCGUCCCCUCGGUAAUGGCGAAUGGGACCCA [G1U C33A] | 0.295
UGCCGGCAUGGUCCCAGCCUCCUCGCUGGCGCCGGCUGGGCAACAUUCCGAGGGGACCGUCCCCUCGGUAAUGGCGAAUGGGAUCCA [G1U C84U] | 0.389
UGCCGGCAUGGUCCCAGCCUCCUCGCUGGCGCCGGCUGGGCAACAUUUCGAGGGGACCGUCCCCUCGGUAAUGGCGAAUGGGACCCA [G1U C48U] | 0.415
UGCCGGCAUGGUCCCAGCCUCCUCGCUGGCGCCGGCUGGGCAACAUUCCGAGGGGACCGUCCCAUCGGUAAUGGCGAAUGGGACCCA [G1U C64A] | 0.453
UGCCGGCAUGGUCCCAGCCUCCUCGCUGGCGCCGGCUGGGCAACAUUCCGAGGGGACCGUCCCGUCGGUAAUGGCGAAUGGGACCCA [G1U C64G] | 0.432
UGCCGGCAUGGUCCCAGCCUCCUGGCUGGCGCCGGCUGGGCAACAUUCCGAGGGGACCGUCCCCUCGGUAAUGGCGAAUGGGACCCA [G1U C24G] | 0.447
UGCCGGCAUGGUCCCAGCCUCCUAGCUGGCGCCGGCUGGGCAACAUUCCGAGGGGACCGUCCCCUCGGUAAUGGCGAAUGGGACCCA [G1U C24A] | 0.183
UGCCGGCAUGGUUCCAGCCUCCUCGCUGGCGCCGGCUGGGCAACAUUCCGAGGGGACCGUCCCCUCGGUAAUGGCGAAUGGGACCCA [G1U C13U] | 0.326
UGCCGGCAUGGUCCCAGCCUCCUCGCUGGCGCCGGCUGGGCAACAUUCGGAGGGGACCGUCCCCUCGGUAAUGGCGAAUGGGACCCA [G1U C49G] | 0.181
UGCCGGCAUGGUCCCAGCCUCCUCGCUGGCGCCGGCUGGGCAACAUUCCGAGGGGACCGUCCCCUCGGUAAUGGCGAAUGGGACGCA [G1U C85G] | 0.383
UGCCGGCAUGGUCCCAGCCUCCUCGCUGGCGCCGGCUGGGCAACAUUCCUAGGGGACCGUCCCCUCGGUAAUGGCGAAUGGGACCCA [G1U G50U] | 0.466
UGCCGGCAUGGUCCCAGCCUCCUCGCUGGCGCCGGCUGGGCAACAUCCCGAGGGGACCGUCCCCUCGGUAAUGGCGAAUGGGACCCA [G1U U47C] | 0.475

Variant | self-cleavage
UGCCGGCAUGGUCCCAGCCUCCUCGCUGGCGCCGGCCGGGCAACAUUCCGAGGGGACCGUCCCCUCGGUAAUGGCGAAUGGGACCCA [G1U U37C] | 0.415
UGCCGGCAUGGUCCCAGCCUCCUCGCUGGCGCCGGCUGGGCAACAUUCCGAGGGGACCGUCCCCUCGGUAAGGGCGAAUGGGACCCA [G1U U72G] | 0.269
UGCCGGCAUGGUCCCAGCCUCCUCGCUGGCGCCGGCUGGGCAACAUUCCGAGGGGACCGGCCCCUCGGUAAUGGCGAAUGGGACCCA [G1U U60G] | 0.443
UUCCGGCAUGGUCCCAGCCUCCUCGCUGGCGCCGGCUGGGCAACAUUCCGAGGGGACCGUCCCCUCGGUAAUGGCGAAUGGGACCCA [G1U G2U] | 0.366
UCCCGGCAUGGUCCCAGCCUCCUCGCUGGCGCCGGCUGGGCAACAUUCCGAGGGGACCGUCCCCUCGGUAAUGGCGAAUGGGACCCA [G1U G2C] | 0.519
UGCCGGCAUGGUCCCAGCCUCCUCGCUGGCGCCGGCUGGGAAACAUUCCGAGGGGACCGUCCCCUCGGUAAUGGCGAAUGGGACCCA [G1U C41A] | 0.496
UGCCGGCAUGGUCCCAGCCUCCUCGCUGGCGCCGGCUUGGCAACAUUCCGAGGGGACCGUCCCCUCGGUAAUGGCGAAUGGGACCCA [G1U G38U] | 0.295
UGCCGCCAUGGUCCCAGCCUCCUCGCUGGCGCCGGCUGGGCAACAUUCCGAGGGGACCGUCCCCUCGGUAAUGGCGAAUGGGACCCA [G1U G6C] | 0.656
UGCCGGCAUGGUCCCAGCCUCCUCGCUGGCGCCGGCUGGGCAACAUUCCGAGGGGACCGUCCCCUCGGUAAUGGGGAAUGGGACCCA [G1U C75G] | 0.162
UGCCGGCAUGGUCCCAGCCUCCUCGGUGGCGCCGGCUGGGCAACAUUCCGAGGGGACCGUCCCCUCGGUAAUGGCGAAUGGGACCCA [G1U C26G] | 0.469
UGCCGGCAUGGUCCCAGCCUCCUCGCUGGCGCCGGCUGGGCAACAUUCCGAGGGGACCGUCCCCUCUGUAAUGGCGAAUGGGACCCA [G1U G67U] | 0.332
UGCCGGCAUGGUCCCAGCCUCCUCGCUGGCGCCGGCUGGGCAACAUUCCGAGGGGACCGUCCCCUCGGGAAUGGCGAAUGGGACCCA [G1U U69G] | 0.435
UGCCGGCAUGGUCCCAGCCUCCUCGCUGGCGCCGGCUGGGCAACAUUCCGAGGGGACCGUCCCCUAGGUAAUGGCGAAUGGGACCCA [G1U C66A] | 0.535
UGCCGGCAUGGUCCCAGCCUCCUCGCUGGCGCCGGCUGGGCAACAUUCCGAGGGGACCGUCCCCUGGGUAAUGGCGAAUGGGACCCA [G1U C66G] | 0.211
UGCCGGCAUGGUCCCAGCCUCCUCGCUGGCGCCGGCUGGGCAACAUUCCGAGGGGACCGUCCCCUCGGUAAUGGCGAAUCGGACCCA [G1U G80C] | 0.272
UGCCGGCAUGGUCCCAGCCUCCUCGCUGGCGCCGGCUGGGCAACAUUCCGAGGGGACCGUCCCCUCGGUAAUGGCGAAUAGGACCCA [G1U G80A] | 0.355
UGCCGGCAUGGUCCCAGCCUCCUCGCUUGCGCCGGCUGGGCAACAUUCCGAGGGGACCGUCCCCUCGGUAAUGGCGAAUGGGACCCA [G1U G28U] | 0.295
UGCCGGCAUGGUCCCAGCCUCCUCGCUGGCGCCGGCUGGGCAACAAUCCGAGGGGACCGUCCCCUCGGUAAUGGCGAAUGGGACCCA [G1U U46A] | 0.443
UGCCGGCAUGGUCCCAGCCUCCUCGCUGGCGCCGGCUGGGCAACAUUCCGAGGGGACCGUCCCCUCGGUAAUCGCGAAUGGGACCCA [G1U G73C] | 0.231
UGCCGGCAUGGUCCCAGCCUCCUCGCUGGCGCCGGCUGGGCAACAUUCCGAGGGGACCGUCCCCUCGGUAAUUGCGAAUGGGACCCA [G1U G73U] | 0.422
UGCCGGCAUGGUCCCAGCCUCCUCGCUGGCGCCGGCUGGGCAACAUUCCGAGGGGACCGUCCCCUCGGUAAUGGCGAAUGAGACCCA [G1U G81A] | 0.25
UGCCGGCAUUGUCCCAGCCUCCUCGCUGGCGCCGGCUGGGCAACAUUCCGAGGGGACCGUCCCCUCGGUAAUGGCGAAUGGGACCCA [G1U G10U] | 0.336

Variant | self-cleavage
UGCCGGCAUGGUCCCAGCCUCCUCGCUGGCGCCGGAUGGGCAACAUUCCGAGGGGACCGUCCCCUCGGUAAUGGCGAAUGGGACCCA [G1U C36A] | 0.158
UGCCGGUAUGGUCCCAGCCUCCUCGCUGGCGCCGGCUGGGCAACAUUCCGAGGGGACCGUCCCCUCGGUAAUGGCGAAUGGGACCCA [G1U C7U] | 0.269
UGCCGGCAUGGUCCCAGACUCCUCGCUGGCGCCGGCUGGGCAACAUUCCGAGGGGACCGUCCCCUCGGUAAUGGCGAAUGGGACCCA [G1U C18A] | 0.304
UGCCGGCAUGGUCCCAGUCUCCUCGCUGGCGCCGGCUGGGCAACAUUCCGAGGGGACCGUCCCCUCGGUAAUGGCGAAUGGGACCCA [G1U C18U] | 0.315
UGCCGGCAUGGUCCCAGCCUCCUCGCUGGCGCCGGCUGGGCAACAUUCCGAGGGGAGCGUCCCCUCGGUAAUGGCGAAUGGGACCCA [G1U C57G] | 0.196
UGCCGGCAUGGUCCCAGCCUCCUCGCUGGCGCCGGCUGGGCAACAUUCCGAGGGGAACGUCCCCUCGGUAAUGGCGAAUGGGACCCA [G1U C57A] | 0.423
UGCCGGCAUGGUCCCAGCCUCCUCGCUGGCGCCGGCUGGGCAACAUUCCGAGGGGAUCGUCCCCUCGGUAAUGGCGAAUGGGACCCA [G1U C57U] | 0.428
UGCCGGCAUGGUCCCAGCCUCCUCGCUGGCGCCGGCUGGUCAACAUUCCGAGGGGACCGUCCCCUCGGUAAUGGCGAAUGGGACCCA [G1U G40U] | 0.225
UGCCGGCAUGGUCCCAGCCUCCUCGCUGGCGCCGGCUGGACAACAUUCCGAGGGGACCGUCCCCUCGGUAAUGGCGAAUGGGACCCA [G1U G40A] | 0.426
UGCCGGCAUGGUCCCAGCCUCCUCGCUGGCGCCGGCUGGGCAACAUUCCGAGGGGACCGUCCCCUCGGUAAUGGCGAAUGGUACCCA [G1U G82U] | 0.389
UGCCGGCAUGGUCCCAGCCUCCUCGCUGGCGCCGGCUGGGCAACAUUCCGAGGGGACCGUCCCCUCGGUAAUGGCGAAUGGAACCCA [G1U G82A] | 0.241
UGCCGGCAUGGUCCCAGCCUCCUCGCUGGCGCCGGCUGGGCAACAUUCCGAGGGGACCGUCCCCUCGGUAAUGGCGAAUGGCACCCA [G1U G82C] | 0.47
UGCCCGCAUGGUCCCAGCCUCCUCGCUGGCGCCGGCUGGGCAACAUUCCGAGGGGACCGUCCCCUCGGUAAUGGCGAAUGGGACCCA [G1U G5C] | 0.755
UGCCUGCAUGGUCCCAGCCUCCUCGCUGGCGCCGGCUGGGCAACAUUCCGAGGGGACCGUCCCCUCGGUAAUGGCGAAUGGGACCCA [G1U G5U] | 0.402
UGCCGGCAUGGUCCCAGCCUCCUCGCUGGCGCCGUCUGGGCAACAUUCCGAGGGGACCGUCCCCUCGGUAAUGGCGAAUGGGACCCA [G1U G35U] | 0.288
UGCCGGCAUGGUCCCAGCCUCCUCGCUGGCGCCGACUGGGCAACAUUCCGAGGGGACCGUCCCCUCGGUAAUGGCGAAUGGGACCCA [G1U G35A] | 0.192
UGCCGGCAUGGUCCCAGCCUCCUCGCUGGCGCCGGCUGGGCAACAUUCCGAGGGGACCGUUCCCUCGGUAAUGGCGAAUGGGACCCA [G1U C61U] | 0.377
UGCCGGCAUGGUCCCAGCCUCCUCGCAGGCGCCGGCUGGGCAACAUUCCGAGGGGACCGUCCCCUCGGUAAUGGCGAAUGGGACCCA [G1U U27A] | 0.44
UGCCGGCAUGGUCCCAGCCUCCUCGCUGGCGCCGGCUGGGCAACAUUCCGAGGGGACCGUCCCCUCGAUAAUGGCGAAUGGGACCCA [G1U G68A] | 0.496
UGCGGGCAUGGUCCCAGCCUCCUCGCUGGCGCCGGCUGGGCAACAUUCCGAGGGGACCGUCCCCUCGGUAAUGGCGAAUGGGACCCA [G1U C4G] | 0.634
